Key:
[1] = target: pT18c-Zip (leucine zipper fragment encoded by control plasmid pUT18C-zip); assay: two-hybrid; bacterial adenylate cyclase two-hybrid (BACTH) in cya- E. coli BTH101; bait RbaW, preys in pKNT25 or pKT25; β-galactosidase activity (units mg^-1 dry weight) of 3 replicate co-transformants
[2] = target: pT18c-RbaW (RbaW in BACTH vector pUT18c) (Rhodobacter capsulatus); assay: as above

β-galactosidase activity [1] [units mg^-1] | β-galactosidase activity [2] [units mg^-1] | Substance
7340 | – | KT-Zip (leucine zipper fragment encoded by control plasmid pKT25-zip) (domain or fragment)
– | 1440 | pKNT25-RbaV (RbaV in BACTH vector pKNT25) (natural protein)

From article PMC3999984
